Reference: the nanobody polyreactivity screen of Harvey et al. (2022)

Assay: yeast display, Sf9 membrane polyspecificity reagent, FACS + sequencing; frameworks hold sequencing errors
Method in brief: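 Galactose-induced (36–48 hours) yeast carrying a synthetic nanobody display library were exposed to 10% biotinylated, detergent-solubilized Sf9 membrane reagent at 4 °C for 1 hour. FACS followed streptavidin microbead enrichment, using low and high (top ~1%) gates for expression (anti-HA) and reagent binding (streptavidin). Colony PCR, MiSeq 2 × 250 sequencing and CDR-length filtering followed. Labels for polyreactivity reflect the gate of origin.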

Sequence	polyreactivity (PSR sort gate)
QVQLVESGGGLVQAGGSLRLSSAASGSTIGVNARGWYRQAPGKERELVAAISSSGSSTYADSVKGRFTISRDNAKNTVYLQMNSLKPEDTAVYYCNKEWYPYKHNYWGQGTQVTVSS	low polyreactivity
QVQLVESGGGLVQAGGSLRLSCAASGSTFPLYTMGWYRQAPGKERELVAAINYGGTSTYYADSVKGRFTISRDNAKNTVYLQMNSLKPEDTAVYYCKQFVPGRYYWGQGTQVTVSS	high polyreactivity
QVQLVESGGGLVQAGGSLRLSCAASGIIFSVYAMGWYRQAPGKERELVAAITWSGSRTYYADSVKGRFTISRDNAKNTVYLQMNSLKPEDTAVYYCATVFRGFVEYEYWGQGTQVTVSS	low polyreactivity
QVQLVETGGGLVQAGGSLRLSCAASGSIFTPYAIGWYRKAPGKDRELVAAITSRGGTTYYADSVKGRFTISRDNAKNTVYLQMNSLKPEDTAVYYCAAEYYHLYYYQFDYWGQGTQVTVSS	high polyreactivity
QVQLVESGGGLVQAGGSLRLSCAASGRNFYYNAMGWYRPAPGKERELVAAISSGGSTTYADSVKGRFTISRDNAKNTVYLQLNSLKPEDTAVYYCNADISAHYVIGVPTGYYWGQGTQVTVSS	low polyreactivity
QVQLVQSGGGLVQAGGSLRLSCAASGGTFQHNTMGWYRQAPGKEWQLVAAIRGSDGSTYYADSVKGRFTISRDNAKNTVYLQMNSLKPEDTAVYYCNRAYTASYIPGVGFWGQGTQVTVSS	high polyreactivity
QVQLVESGGGLVQAGGSLRLSFAASGYTFAGNAMGWYRQAPGKERELVAVITYSGVSTYYADSVKGRFTISRDNAKNTVYLQMNSLKPEDTAVYYCNAVRERYASDYWGQGTQVTVSS	low polyreactivity
QVQLVESGGGLVQAGGSIRLSCAASGSTFRGYSMGWYRQAPGKERELVAAISSRGARTHYADSVKGRFTISRDNSKNTVYLQMNCLKPEDTAVYDCAKVWVRSGRRKMDYWGQGTQVTVSS	low polyreactivity
QVQLVESGGGLVQAGGSIRLSCAASGSTFDPYAMGWYRQAPGKEREVVAAISGSRGGSTNYADSVKGRFTISRDNAKNTVYLQMNSLKQEDTAVFYCNARFSYRNGHYYRYYYGGQGTQVTVSS	high polyreactivity
QVQLVESGGGLVQAGGSLRLSCAASGSTFFVYAMGWYRQAPGKERELVATISSAASTYYADSVKGRFTISRDNAKNTVYLQMNSLKPEDTAVYYCAAGYFIRTRSRYRYDYWGQGTQVTVSS	high polyreactivity
QVQLVESGGGLVQAGGSLRLSCAASGSTFTTYAMAWYRQAPGKERELVAAISTNGGRTFYADSVKGRFTISRDNAKNTVYLLMNSLKAEDTAVYYCAADRAGSIMNYWGQGTQVTVSS	low polyreactivity
QVQLVESGGGLVQAGGSLRLSCAASGRIFWSYGMGWYRQAPGKERELVAAITNTGDGTYYADSVKGRFTISRDNAKNTVYLQMNSLKPEDTAVYYCAVDYRGYWYWEYDYWGQGTQVTVSS	high polyreactivity
QVQLVESGGGLVQAGGSLRLSCAASGVIFYDYAMGWYRQAPGKERELVAAISSGGSTNYADSVKGRFTISRDNAKNTVYLQMNSLKPEDTAVYYCAADDRSYATWKRDYDYWGQGTQVTVSS	low polyreactivity
QVQLVETGGGLFQAGGSLRLSCAPSGFTFRYNAMGWYRQAPGKERELVAAISWSGGSTYYADSVKGRFTISRDNAKNTVYLQMNSLKPEDTAVYYSNAEYDDYAGEFDYWGQGTQVTGSS	low polyreactivity
QVQLVESGGGLVQAGGSLRLSCAASGRTFGRYTMGWYIQAPGKERELGASISNTARTNYADSVKGRFTISRDNAKNTVYLQMNSLKPEDTAVYYCAAGFVRYRGTRDYWGQGTQVTVSS	low polyreactivity
QVQLVESGGGLVQAGGSLRLSCAASGRTFLWYAMGWYRQAPGKERELVAAIRWRGTSTYYADSVKGRFTISRDNAKNTVYLQMNSLKPEDTAVYYCAAKVRSLYWFDYWGQGTQVTVSS	high polyreactivity
QVQLVESGGGLVQAGGSLRLSCAASGIIFYYNAMGWYRQAPGKERELVAAISSSGGSTSYADSVKGRFTISRDNAKNTVFLQMNSLKPEDTAVYYCAADSYPAYLGFVGFDYWGQGTQVTVSS	low polyreactivity
QVQLVESGGGLVQAGGSLRLSCAASGLIFQTYAMGWYRQAPGKERELVATISGSTGGTYYADSVKGRFTISRDNAKNTVYLQMNSLKPEDTAVYYCNASVFQSEYDYWGQGTQVTVSS	low polyreactivity
QVQLVESGGGLVQAGGSLRLSCAASGSIFKCNAMGWYRQAPGKERELVASITRSGGSTYYADSVKGRFTISRDNAKNTVYLQMNSLKPEDTAVYYCARSYGWYRWAGYDYWGQGTQVTVSS	high polyreactivity
QVQLVESGGGLVQAGGSLRLSCAASGSTFGGNAMGWYRQAPGKERELVAAISSSGGSTYYADSVKGRFTISRDNAKNTVYLQMNSLKPEDTAVYSCAALYHWTYDYWGQGTQVTVSS	low polyreactivity
QVQLVESGGGLVQAGGSLRLSSAASGYIFDRYTMGWYRQAPGKERELVASISRRGGSTYYADSVKGRFTISRDNAKNTVYLQMNSLKPEDTAVYYCAAPNALGYLFQGFDYWGLGTQVTVSS	high polyreactivity
QVQLVESGGGLVQAGGSLRLSCAASGSIFPGYAMGWYRPAPGKERELVAAITDSGVSTYYADSVKGRFTISRDNAKNTVYLQMNSLKPEDTAVYYCARDNWQWYPSTWYDYWGQGTQVTVSS	high polyreactivity

Sequence	polyreactivity (PSR sort gate)
QVQLEESGGGLVQAGGSLRLSCAASGSIFVYYAMGWYRQAPGKERELVAAISSSGTSTYYADSVKGRFTISRDNAKNTVYLQMNSLKPEDTAVYYCATTRRYAYRGGHNYWGQGTQVTVSS	high polyreactivity
QVHLVESAGGLVQAGGSLRLSCAASGITFSDNAMGWYRPAPGKETEVVAAISWGGGSTYYADSVKGRFTISRDNAKNTVYLQMNSLKPEDTAFYYCNAGGYLISDVDRVGYWGQGTQVTVSS	low polyreactivity
QVQLVESGGGLVQEGGSLRLSCAASGRTFAYNVKGRYRQAPGKVRELVAGISFGAGSTYYADSVKGRFTISRDNAKNTVYLHMNSLKPEDTAVYYCATRRRGTRYPRGYDYWGQGTQVTVSS	high polyreactivity
QVQLVESGGGLVQAGGSLRLSCAASGSIFTYYAMGWYRQAPGKERELVAAISASGGSTYYADSVKGRFTISRDNAKNTVYLQMNSLKPEDTAVYYCAADYRRSGGGNLPYDNDYWGQVTQVTVSS	high polyreactivity
QVQLVESGGGLVQAGGSLRLSCAASGLIIRPYAMGWYRQAPGKERELVAAITSGGSTDYADSVKGRFTISRVNAKNSVYLQMYSRKPEDTAVYYCNGDIYPHDGYPWQGDYDYWGQGTQVTVSS	low polyreactivity
QVQLVESGGGLVQAGGSLRLSCAASGFTFYYNAMGWYRQAPGKERELVAAISSNGGSTYYADSVKGRFTISRDNAKNTVYLQMNSLKPEDTAVYYCAAYPKSSRWDFESWGQGTQVTVSS	low polyreactivity
QVQLVESGGGLVQAGGRLRLSCAASGISFRFNAMGWYRQAPGKEREFVAAITYSGDSTYDADSVMGRFTISRDNAKNTVYLQKNSLKPEDTAVYYCAADYYAIYRRIFYYWGQGTQVTVSS	low polyreactivity
QVQLVESGGGLVQAGGSLRLSCAASGFIFVPNAMGWYRQAPGKERELVAAITWSGSSTYYADSVKGRFTISRDNAKNTVYLQINSLKPEDTAVYYCAADYPVWDEFYDSYEYWGQGTQVTVSS	high polyreactivity
QVQLVESGGGIVQAGGSLRLSCAASGSTFRGYAMGWYRQAPGKETELVAAITSRGTRTYYADSVKGRFTISRDNSKNTVSLQMNSLKPEDTAVYYCNVVSDIRLYYRYAYDYWGQGTQVTVSS	high polyreactivity
QVHLVDSGGGLVQEGGSLRLSCAASGFISPKYRMGWYRQAPRKERELVAANTTSDGSTSYADSVKGRFRISRDNAKTTVYLQMISLKPEDSAVYYCAAGYESWRSWVRRYLRMDYWGQGTQVTLSS	high polyreactivity
QVQLVESGGGLVQAGGSLRLSCAASGRTFGHNAMGWYRQAPGKEREFVAAITYSGVRTFYADSVKGRFTISRDNAKNTVYLQMNSLKPEDTSVYYCATDWRRDYDYWGQGTQVTVSS	low polyreactivity
EVQLVESGGGLVQAGGSLRLSCAASGYSFSYNTMGWYRQAPGKERELVAAITRSGGSTYYADSVKGRFTISRDNAKNTVYLQMNSLKPEDTAVYYCNRVGWRGLKKANYWGQGTQVTVSS	high polyreactivity
QVQLVESGGGLVQAGGSLRLSCAASGRIFRGYAMGWYRQAPGKEREFVAAITKNGGSTYYADSVKGRFTISRDNAKNTVYLQMNSLKPEDTAVYYCAAGGPSTLDDYWGQGTQVTVSS	low polyreactivity
QVQLVESGGGLVQAGGSLRLSCADSGSIFFFYAMGWYRQAPGKERELVAAISKSPSSTYYADSVKGRFTISRDNAKNTVYLQMNSLKPEDTAVYYCNTGYSGIQYYYWGQGAQVTVSS	low polyreactivity
QVQLVESGGGLVQAGGSLRLSCAASGFTFRVYAMGGYRPAPGKERELVAAITSGSSTTYADSVKGRFTISRDNAKNTVYLQMNSLKPEDTAVYYCNARRRGRVTGSYGYWGQGTQVTVSS	high polyreactivity
QVQLVESGGGLVQAGGSLRVSCAASGFIFVRNTMVWYRQAPGKERELVAGIRYSGGSTYYADSVKGRFTISRDNAKNTVFLQMNSQKTEDTAVYYCAARSHRRLMYYWGQGTQVNVSS	high polyreactivity
QVQLVESGGGLVQAGGSLRLSCAASGITIVLYTMGWYRQAPGKEREFVAGITRGGSTYYADSVKGRFTISRDNAKNTVYLQMNSLKPEDTSVYYCAARPRFLRASVEYDYWGQGTQVTVSS	high polyreactivity
QVQLVESGGCLVQAGGSLRLSCAASGSTFTINVMGWYRQAPGKERELVAAINGGGRTNYADSVKGRFTISRDNAKNTVYLQMNSLKPEDTAVYYCAADGLSNVRQMDYWGQGTQVTVSS	low polyreactivity
QVQLQESGDGLVQAVGSLRLSCAASGYISGYYYMGWYRQAPGKERELVAGIDAFGSSTNYADCVKGRLTISRDNAKNTVYLQMNSPKPEDTAVYYCAAEYDDWDYHWYWGQGTQVTVSS	low polyreactivity
QVQIVESGGGLVQAGGSLRLSCAASGSIFSGYVMGWYRQAPGKERELVAAITWSGGRTYYADSVKGRFTISRDNAKNTVYLQMNSLKPEDTAVYYCAKRKIKSSGYYYWGQGTQVTVSS	high polyreactivity
QVQLVESGGGLVQAGGSLRLSCAASGRTFHRYTMGWYRQAPGKERELVASISRSGGSTYYADSVKGRFTISRDNAKNTVYLQMNSLKPEDTAVYYCAARVSRRGTWYDYWGQGTQVTVSS	high polyreactivity
